Measurements: patent US20120172295A1 (INDIANA UNIVERSITY RESEARCH AND TECHNOLOGY, published 2012)
Positions of bridges follow the written chain, without caps; N, C: chain ends. Non-standard residues stand in square brackets, D forms with d. No end group written: not given here. PEG = not defined here; Aib = CC(C)(N)C(=O)O

B1: Chimera AIB2, Gly29,30 Cys40 Cex Lactam (SEQ ID NO: 489), parent w/o PEG (peptide)
peptide: H[Aib]QGTFTSDYSKYLDEQAAKEFIAWLMNGGPSSGAPPPSC-NH2
modifications: lactam 16-20; N-terminus assumed
SMILES: CC[C@H](C)[C@H](NC(=O)[C@H](Cc1ccccc1)NC(=O)[C@H](CCC(=O)O)NC(=O)[C@@H]1CCCCNC(=O)CC[C@H](NC(=O)[C@H](CC(=O)O)NC(=O)[C@H](CC(C)C)NC(=O)[C@H](Cc2ccc(O)cc2)NC(=O)[C@H](CCCCN)NC(=O)[C@H](CO)NC(=O)[C@H](Cc2ccc(O)cc2)NC(=O)[C@H](CC(=O)O)NC(=O)[C@H](CO)NC(=O)[C@@H](NC(=O)[C@H](Cc2ccccc2)NC(=O)[C@@H](NC(=O)CNC(=O)[C@H](CCC(N)=O)NC(=O)C(C)(C)NC(=O)[C@@H](N)Cc2c[nH]cn2)[C@@H](C)O)[C@@H](C)O)C(=O)N[C@@H](CCC(N)=O)C(=O)N[C@@H](C)C(=O)N[C@@H](C)C(=O)N1)C(=O)N[C@@H](C)C(=O)N[C@@H](Cc1c[nH]c2ccccc12)C(=O)N[C@@H](CC(C)C)C(=O)N[C@@H](CCSC)C(=O)N[C@@H](CC(N)=O)C(=O)NCC(=O)NCC(=O)N1CCC[C@H]1C(=O)N[C@@H](CO)C(=O)N[C@@H](CO)C(=O)NCC(=O)N[C@@H](C)C(=O)N1CCC[C@H]1C(=O)N1CCC[C@H]1C(=O)N1CCC[C@H]1C(=O)N[C@@H](CO)C(=O)N[C@@H](CS)C(N)=O
B2: Chimera AIB2, Gly29,30 Cys24 Cex (SEQ ID NO: 490), parent w/o PEG (peptide)
peptide: H[Aib]QGTFTSDYSKYLDEQAAKEFICWLMNGGPSSGAPPPS-NH2
modifications: N-terminus assumed
SMILES: CC[C@H](C)[C@H](NC(=O)[C@H](Cc1ccccc1)NC(=O)[C@H](CCC(=O)O)NC(=O)[C@H](CCCCN)NC(=O)[C@H](C)NC(=O)[C@H](C)NC(=O)[C@H](CCC(N)=O)NC(=O)[C@H](CCC(=O)O)NC(=O)[C@H](CC(=O)O)NC(=O)[C@H](CC(C)C)NC(=O)[C@H](Cc1ccc(O)cc1)NC(=O)[C@H](CCCCN)NC(=O)[C@H](CO)NC(=O)[C@H](Cc1ccc(O)cc1)NC(=O)[C@H](CC(=O)O)NC(=O)[C@H](CO)NC(=O)[C@@H](NC(=O)[C@H](Cc1ccccc1)NC(=O)[C@@H](NC(=O)CNC(=O)[C@H](CCC(N)=O)NC(=O)C(C)(C)NC(=O)[C@@H](N)Cc1c[nH]cn1)[C@@H](C)O)[C@@H](C)O)C(=O)N[C@@H](CS)C(=O)N[C@@H](Cc1c[nH]c2ccccc12)C(=O)N[C@@H](CC(C)C)C(=O)N[C@@H](CCSC)C(=O)N[C@@H](CC(N)=O)C(=O)NCC(=O)NCC(=O)N1CCC[C@H]1C(=O)N[C@@H](CO)C(=O)N[C@@H](CO)C(=O)NCC(=O)N[C@@H](C)C(=O)N1CCC[C@H]1C(=O)N1CCC[C@H]1C(=O)N1CCC[C@H]1C(=O)N[C@@H](CO)C(N)=O
B3: Chimera AIB2, Gly29,30 Cys40 Cex (SEQ ID NO: 488), parent w/o PEG (peptide)
peptide: H[Aib]QGTFTSDYSKYLDEQAAKEFIAWLMNGGPSSGAPPPSC-NH2
modifications: N-terminus assumed
SMILES: CC[C@H](C)[C@H](NC(=O)[C@H](Cc1ccccc1)NC(=O)[C@H](CCC(=O)O)NC(=O)[C@H](CCCCN)NC(=O)[C@H](C)NC(=O)[C@H](C)NC(=O)[C@H](CCC(N)=O)NC(=O)[C@H](CCC(=O)O)NC(=O)[C@H](CC(=O)O)NC(=O)[C@H](CC(C)C)NC(=O)[C@H](Cc1ccc(O)cc1)NC(=O)[C@H](CCCCN)NC(=O)[C@H](CO)NC(=O)[C@H](Cc1ccc(O)cc1)NC(=O)[C@H](CC(=O)O)NC(=O)[C@H](CO)NC(=O)[C@@H](NC(=O)[C@H](Cc1ccccc1)NC(=O)[C@@H](NC(=O)CNC(=O)[C@H](CCC(N)=O)NC(=O)C(C)(C)NC(=O)[C@@H](N)Cc1c[nH]cn1)[C@@H](C)O)[C@@H](C)O)C(=O)N[C@@H](C)C(=O)N[C@@H](Cc1c[nH]c2ccccc12)C(=O)N[C@@H](CC(C)C)C(=O)N[C@@H](CCSC)C(=O)N[C@@H](CC(N)=O)C(=O)NCC(=O)NCC(=O)N1CCC[C@H]1C(=O)N[C@@H](CO)C(=O)N[C@@H](CO)C(=O)NCC(=O)N[C@@H](C)C(=O)N1CCC[C@H]1C(=O)N1CCC[C@H]1C(=O)N1CCC[C@H]1C(=O)N[C@@H](CO)C(=O)N[C@@H](CS)C(N)=O
B4: Chimera AIB2, Cys29 (SEQ ID NO: 487), parent w/o PEG (peptide)
peptide: H[Aib]QGTFTSDYSKYLDEQAAKEFIAWLMNC-NH2
modifications: N-terminus assumed
SMILES: CC[C@H](C)[C@H](NC(=O)[C@H](Cc1ccccc1)NC(=O)[C@H](CCC(=O)O)NC(=O)[C@H](CCCCN)NC(=O)[C@H](C)NC(=O)[C@H](C)NC(=O)[C@H](CCC(N)=O)NC(=O)[C@H](CCC(=O)O)NC(=O)[C@H](CC(=O)O)NC(=O)[C@H](CC(C)C)NC(=O)[C@H](Cc1ccc(O)cc1)NC(=O)[C@H](CCCCN)NC(=O)[C@H](CO)NC(=O)[C@H](Cc1ccc(O)cc1)NC(=O)[C@H](CC(=O)O)NC(=O)[C@H](CO)NC(=O)[C@@H](NC(=O)[C@H](Cc1ccccc1)NC(=O)[C@@H](NC(=O)CNC(=O)[C@H](CCC(N)=O)NC(=O)C(C)(C)NC(=O)[C@@H](N)Cc1c[nH]cn1)[C@@H](C)O)[C@@H](C)O)C(=O)N[C@@H](C)C(=O)N[C@@H](Cc1c[nH]c2ccccc12)C(=O)N[C@@H](CC(C)C)C(=O)N[C@@H](CCSC)C(=O)N[C@@H](CC(N)=O)C(=O)N[C@@H](CS)C(N)=O

Assays:
glucagon receptor = glucagon receptor (UniProt P47871 26-477, limits assumed); experiment: cell-based or functional assay
GLP-1 receptor = GLP-1 receptor (UniProt P43220 24-463, limits assumed); experiment: cell-based or functional assay

Sequence of glucagon receptor (P47871 26-477 limits assumed): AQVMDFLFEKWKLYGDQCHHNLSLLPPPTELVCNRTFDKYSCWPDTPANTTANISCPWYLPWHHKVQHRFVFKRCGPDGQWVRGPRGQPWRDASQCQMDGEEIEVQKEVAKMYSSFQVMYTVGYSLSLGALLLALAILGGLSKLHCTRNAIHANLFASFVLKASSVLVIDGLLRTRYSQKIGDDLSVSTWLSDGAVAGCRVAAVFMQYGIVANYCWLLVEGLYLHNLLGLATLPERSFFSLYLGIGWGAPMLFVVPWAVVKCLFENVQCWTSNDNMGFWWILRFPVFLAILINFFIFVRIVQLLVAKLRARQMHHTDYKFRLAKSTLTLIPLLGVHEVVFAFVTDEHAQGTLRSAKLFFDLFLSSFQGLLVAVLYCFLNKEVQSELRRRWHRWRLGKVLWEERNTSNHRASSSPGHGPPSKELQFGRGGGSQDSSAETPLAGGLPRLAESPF

| Binder | % Potency Relative to Native (glucagon receptor) | % Potency Relative to Native (GLP-1 receptor) |
| --- | --- | --- |
| B1 | 14.2% | 170% |
| H[Aib]QGTFTSDYSKYLDEQAAKEFIC(PEG)WLMNGGPSSGAPPPS-NH2 (reading uncertain) [Chimera AIB2, Gly29,30 Cys24 Cex (SEQ ID NO: 490), parent w/PEG] | 0.2% | 95.4% |
| H[Aib]QGTFTSDYSKYLDEQAAKEFIAWLMNC(PEG)-NH2 (reading uncertain) [Chimera AIB2, Cys29 (SEQ ID NO: 487), parent w/PEG] | 5.6% | 54.3% |
| H[Aib]QGTFTSDYSKYLDEQAAKEFIAWLMNGGPSSGAPPPSC(PEG)-NH2 (lactam 16-20; reading uncertain) [Chimera AIB2, Gly29,30 Cys40 Cex Lactam (SEQ ID NO: 489), parent w/PEG] | 3.2% | 63.6% |
| B2 | 2.5% | 458% |
| B3 | 2.2% | 359% |
| B4 | 20.1% | 125% |
| H[Aib]QGTFTSDYSKYLDEQAAKEFIAWLMNGGPSSGAPPPSC(PEG)-NH2 (reading uncertain) [Chimera AIB2, Gly29,30 Cys40 Cex (SEQ ID NO: 488), parent w/PEG] | 0.3% | 68.8% |
